T1: ERBB4 (Homo sapiens)
T1 chain: HRNTVV

T2: HTLV1 Tax (Human T-cell leukemia virus 1)
T2 chain: FRETEV

T3: Erbin PDZ binder
T3 chain: TGWETWV

B1: PSD95-PDZ3 302-415 (protein)
chain: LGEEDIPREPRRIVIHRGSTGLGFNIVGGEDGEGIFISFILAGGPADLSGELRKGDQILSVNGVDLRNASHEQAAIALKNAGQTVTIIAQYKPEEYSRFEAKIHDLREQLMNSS
B2: Erbin-PDZ PDZ (protein)
chain: AKQEIRVRVEKDPELGFSISGGVGGRGNPFRPDDDGIFVTRVQPEGPASKLLQPGDKIIQANGYSFINIEHGQAVSLLKTFQNTVELIIVREVSS
B3: PSD95-PDZ2 155-249 (protein)
chain: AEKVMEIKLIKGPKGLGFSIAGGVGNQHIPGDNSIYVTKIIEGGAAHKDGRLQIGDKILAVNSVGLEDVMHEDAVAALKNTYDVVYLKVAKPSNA

Experiments:
Test in all cases: ITC
ERBB4 = biological target: T1, ERBB4
HTLV1 Tax = biological target: T2, HTLV1 Tax
HTLV3 Tax = HTLV3 Tax (Human T-cell leukemia virus 3)
Erbin PDZ binder = biological target: T3, Erbin PDZ binder
AdV E4 ORF1 = AdV E4 ORF1 (Human adenovirus)

Binder	Kd (ERBB4) [µM]	Kd (HTLV1 Tax) [µM]	Kd (HTLV3 Tax) [µM]	Kd (Erbin PDZ binder) [µM]	Kd (AdV E4 ORF1) [µM]
B1	41.6	3.8	43	–	–
B2	–	7.8	23	0.24	–
B3	13.9	1.5	20	5.7	11.5
